System: peptide library, one residue held at a place counted from the Y acceptor
Experiment: relative phosphorylation of the sub-library (ratio to the mean residue at this position); higher = residue favoured
Method in brief: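 Peptide library mixtures, biotinylated and centred on Tyr, each fixed one residue at one position from −5 to +5. Purified recombinant kinases were incubated with them for 90 min in 384-well plates alongside 50 μM ATP and γ-32P-ATP, and the captured, rinsed peptides on streptavidin membranes were measured by phosphorimaging and ImageQuant. Normalization divided each position's intensities by the sum of its 18 randomized residues (16 for the Ser/Thr-free library) and multiplied by that number, so that values give phosphorylation relative to the mean randomized residue.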

Sequence of LIMK1, construct: aa285-end, human (P53667 285-647, looked up): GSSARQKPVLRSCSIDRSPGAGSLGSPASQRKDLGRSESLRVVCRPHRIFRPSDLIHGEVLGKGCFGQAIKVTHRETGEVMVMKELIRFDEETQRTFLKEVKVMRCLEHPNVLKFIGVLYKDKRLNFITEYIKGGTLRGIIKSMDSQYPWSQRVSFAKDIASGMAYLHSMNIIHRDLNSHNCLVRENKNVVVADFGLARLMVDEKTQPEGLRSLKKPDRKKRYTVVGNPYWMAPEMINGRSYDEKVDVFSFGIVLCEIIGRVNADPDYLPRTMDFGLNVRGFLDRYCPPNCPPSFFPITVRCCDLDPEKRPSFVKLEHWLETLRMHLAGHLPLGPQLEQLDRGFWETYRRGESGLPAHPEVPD

LIMK1, construct: aa285-end, human (from UniProt P53667)
relative phosphorylation
Conditions | at +1 | at +2 | at +3 | at +4 | at +5 | at -1 | at -2 | at -3 | at -4 | at -5
A fixed | 0.862 | 0.869 | 0.944 | 1.08 | 0.821 | 0.957 | 0.937 | 0.905 | 1.05 | 0.934
D fixed | 0.776 | 0.662 | 0.6 | 0.613 | 0.56 | 0.811 | 0.735 | 0.778 | 0.812 | 0.737
E fixed | 0.728 | 0.669 | 0.66 | 0.544 | 0.532 | 0.672 | 0.689 | 0.68 | 0.763 | 0.813
F fixed | 0.879 | 1.2 | 1.21 | 1.23 | 1.18 | 0.849 | 1.08 | 1.21 | 1.02 | 1.1
G fixed | 1.22 | 0.739 | 0.954 | 0.989 | 0.991 | 1.31 | 1.02 | 1.04 | 1.08 | 1.02
H fixed | 1.06 | 1.07 | 1.11 | 1.1 | 1.06 | 1.06 | 1.02 | 0.955 | 0.953 | 1.09
I fixed | 0.769 | 0.852 | 0.813 | 0.902 | 0.748 | 0.753 | 0.853 | 0.667 | 0.769 | 0.946
K fixed | 1.35 | 1.49 | 1.4 | 1.37 | 1.46 | 1.28 | 1.33 | 1.16 | 1.3 | 1.14
L fixed | 0.738 | 0.856 | 0.829 | 1 | 0.825 | 0.782 | 0.822 | 0.865 | 0.833 | 0.876
M fixed | 0.802 | 0.926 | 0.996 | 0.973 | 0.836 | 0.793 | 0.833 | 0.801 | 0.837 | 0.843
N fixed | 1.09 | 0.92 | 0.945 | 0.797 | 0.838 | 1.01 | 1.26 | 1.29 | 0.885 | 0.902
P fixed | 1.11 | 0.849 | 0.97 | 0.87 | 0.89 | 1.12 | 1.09 | 1.02 | 1.06 | 0.935
Q fixed | 0.961 | 0.921 | 0.865 | 0.74 | 0.849 | 0.888 | 0.846 | 1.13 | 1 | 0.858
R fixed | 1.6 | 1.63 | 1.39 | 1.24 | 1.43 | 1.53 | 1.31 | 1.42 | 1.41 | 1.34
V fixed | 0.713 | 0.979 | 0.782 | 0.907 | 0.754 | 0.81 | 0.86 | 0.819 | 0.807 | 0.837
W fixed | 1.34 | 1.37 | 1.54 | 1.64 | 2.22 | 1.38 | 1.31 | 1.26 | 1.42 | 1.62
pThr fixed | 0.753 | 0.513 | 0.519 | 0.596 | 0.409 | 0.704 | 0.664 | 0.635 | 0.96 | 0.703
pTyr fixed | 0.761 | 0.655 | 0.689 | 0.61 | 0.518 | 1.61 | 0.887 | 1.34 | 0.667 | 0.744

Reference: the supplement of paper PMC11136658
